± gives the standard deviation.
Test: protein stability index of a GFP-peptide fusion (GPS, HEK-293T) (PSI 1-6); higher = more stable
Conditions: c terminus: a fixed tail appended
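Also: 24-mer peptide tiles fused after GFP, lentivirally expressed, FACS-sorted into six equal bins by GFP/DsRed ratio, decoded by Illumina sequencing, PSI is the read-weighted mean bin number.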

| Sequence | protein stability index (treatment: DMSO) | protein stability index (treatment: MLN4924 1 uM, 8 h) |
| --- | --- | --- |
| QLRLLQAPLQADLTEQVWKVQDAL [SCARA5] | 3.15 ± 0.28 | 3.12 ± 0.3 |
| YQASAMMVESRYALLIVDSATALY [RAD51] | 2.94 ± 0.47 | 2.89 ± 0.41 |
| EDQEEWHAQVVEELSNFKSQKVLG [ZBED1] | 5.41 ± 0.21 | 5.54 ± 0.21 |
| MKFVPRYSLVLELSDSGAFRRSLH [APMAP] | 2.17 ± 0.54 | 2.03 ± 0.51 |
| KEHWTPEGHSIVGFAMYYFTYDPW [SAT1] | 3.05 ± 0.44 | 3.1 ± 0.43 |
| MRAQAQEQERRERREQAAAAPFPS [TFE3] | 5.09 ± 0.26 | 4.91 ± 0.22 |
| VVGFDLELGQAVEVIYPQHSKLTD [DENND6A] | 2.03 ± 0.097 | 2.62 ± 0.3 |
| APVILVGCQLDLRYADLEAVNRAR [RHOBTB2] | 2.57 ± 0.17 | 2.45 ± 0.21 |
| GSNEYTEGPSVVKRPAPRTAPRQE [SPRY1] | 4.9 ± 0.28 | 5.3 ± 0.17 |
| RALQAALAESGGSPDVLQMLKIHR [TRADD] | 2.61 ± 0.34 | 2.91 ± 0.25 |
| QRAPQLPTWWPLPTQVPAAEDYLT [SPAG8] | 3.12 ± 0.2 | 3.23 ± 0.21 |
| SKVLSLQDLCCRAVVSCTPVHLVD [RAB40B] | 3.01 ± 0.17 | 2.85 ± 0.32 |
| QGLFFDMEAYLPKKNGLYLSLVLG [TMEM120A] | 2.67 ± 0.42 | 2.62 ± 0.23 |
| KRAFKIKDFANTIPGHGGIMDRFD [CDS2] | 2.77 ± 0.27 | 2.91 ± 0.42 |
| HNQIAIYAHQPRTADEIPMEPGDI [FUT8] | 4.6 ± 0.19 | 4.52 ± 0.18 |
| TDPGDVPAFLKWLSLASLLVYVAA [SLC2A12] | 2.37 ± 0.39 | 2.66 ± 1 |
| LPQETNLTLKVCKPQAPQKLDPTL | 3.58 ± 0.36 | 3.91 ± 0.49 |
| RLKLMQQNPAGELEGFQAQGHPPS [ATE1] | 4.29 ± 0.18 | 4.31 ± 0.12 |
| KMKYKGQYRPSDLLCPETYVWVPI [ATE1] | 2.01 ± 0.39 | 2.03 ± 0.26 |
| RKLSQGILIIRFEMPYNIWCDGCK [YJU2B] | 2.57 ± 0.62 | 3.3 ± 0.79 |
| MLTTRVFSLVGKRAISTSVCVRAH [COX4I1] | 2.56 ± 0.64 | 2.4 ± 0.59 |

| Sequence | protein stability index (treatment: DMSO) | protein stability index (treatment: MLN4924 1 uM, 8 h) |
| --- | --- | --- |
| QSLTEDLEFRKSMYEEEINETRRK [LMNB1] | 4.99 ± 0.26 | 5.04 ± 0.18 |
| QHLDPQGAQELLEFTIRDLQRLGE [INTS4] | 3.53 ± 0.4 | 3.81 ± 0.46 |
| ERYEIDSLIGKGSFGQVVKAYDHQ [DYRK1B] | 3.92 ± 0.21 | 4.02 ± 0.17 |
| IDDRYGDLDSRTDSDIPEIPPSSD [CDS1] | 5.43 ± 0.34 | 5.45 ± 0.19 |
| KQMSFLEKRGCPRTALEYCKLILS [TCF25] | 3.12 ± 1 | 3.02 ± 0.2 |
| PPGAEEPQAPPASRDEAALPELLL [RETREG3] | 5.25 ± 0.31 | 5.39 ± 0.17 |
| KYLTYDQLRKQKKKTGKSSTTALG [ELOA2] | 3.35 ± 0.083 | 3.79 ± 0.34 |
| RAMRYYYKREILERVDGRRLVYKF [ELF3] | 2.49 ± 0.15 | 2.63 ± 0.41 |
| RMLEFDPAQRITLAEALLHPFFAG [CLK3] | 2.38 ± 0.25 | 2.39 ± 0.19 |
| AANKGEEKKDDENIPMETEETHLE [SMARCE1] | 5.64 ± 0.33 | 5.34 ± 0.42 |
| RLDASTSHQNLRVDDLSVEWDAMG [FSD1] | 4.51 ± 0.34 | 4.62 ± 0.34 |
| FGGPFVESSTREVVFPYTSKSCMR [RHOBTB2] | 2.54 ± 0.8 | 2.98 ± 0.75 |
| CYRENTHQTLKCSALATQYMHCVN [CHCHD3] | 2.17 ± 0.47 | 2.26 ± 0.43 |
| HQRKYTQSFCGENIMMPMGGMMPP [ZNF207] | 2.34 ± 0.15 | 2.49 ± 0.16 |
| GEATAAPAPLCGGPSAEAYLLHPA [TBX6] | 4.17 ± 0.22 | 4.47 ± 0.13 |
| NRRLRALEEQGATWRHRETLIIAV [FATE1] | 2.46 ± 0.39 | 2.22 ± 0.15 |
| NTFFCHSNMCINNTLVCNGLQNCV [NETO1] | 2.13 ± 0.41 | 2.07 ± 0.38 |
| SMENANQENEEKEQVANKGEPLAL [BEX1] | 5 ± 0.26 | 5.11 ± 0.22 |
| VQNGTYLQRVLQNCPWPMSCPGSS [EMID1] | 2.12 ± 0.36 | 3.17 ± 1.1 |
| LVCTFSSQVCRVAYEIMQTLHPDA [FUT8] | 2.95 ± 0.12 | 3.22 ± 0.55 |
